The values that follow come from patent US20030206891A1, “Rapamycin-based biological regulation” (ARIAD Gene Therapeutics, Inc., priority 1995, published 2003).

In test [1] the target is 1FRB-p65(361-550) (human) (UniProt P42345). Nature of the test: cell-based or functional assay.
The target in test [2] is His6-flag-FKBP protein with FK506 (human). Nature of the test: phage display affinity enrichment: 1 µM His6-flag-FKBP plus FK506, Ni-NTA agarose capture, acid elution.
Test [3] has as its target His6-flag-FKBP protein alone (ethanol, no drug) (human). The test can be described thus: phage display affinity enrichment: 1 µM His6-flag-FKBP with ethanol alone, Ni-NTA agarose capture, acid elution.
Test [4] addresses His6-flag-FKBP protein with rapamycin (human). Nature of the test: phage display affinity enrichment: FRAP phagemids mixed with pBC control phagemids, 1 µM His6-flag-FKBP plus rapamycin, Ni-NTA agarose capture, acid elution.

Chain of His6-flag-FKBP protein with rapamycin (human) (chain, as listed by the source limits assumed): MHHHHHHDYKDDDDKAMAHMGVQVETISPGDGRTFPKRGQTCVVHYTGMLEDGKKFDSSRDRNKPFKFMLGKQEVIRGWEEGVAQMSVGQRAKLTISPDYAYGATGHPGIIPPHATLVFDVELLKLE
Chain of His6-flag-FKBP protein alone (ethanol, no drug) (human) (chain, as listed by the source limits assumed): as above
Chain of His6-flag-FKBP protein with FK506 (human) (chain, as listed by the source limits assumed): as above

For the substance “ZFHD1-3FKBP (from UniProt P62942 1-107; P62942 1-107; P62942 1-107)”, in test [1], the SEAP activity of the stable clone at 1100 nM rapamycin (arbitrary fluorescence units) is above 90000; the SEAP activity of the stable clone, no rapamycin (mock transfected cells 47 units) (arbitrary fluorescence units) is 54; the SEAP secretion, enhancement with rapamycin over background is above 1000 fold; the SEAP secretion, transiently transfected HT1080 cells: lowest rapamycin concentration with detectable signal was determined as 0.5 nM. In test [1], this substance displayed an SEAP secretion, transiently transfected HT1080 cells: rapamycin concentration of the peak of 5 nM.

For the substance “phagemids displaying FRAP (amino acids 2015-2114) (from UniProt P42345 2015-2114; P03661 216-424)”, the values for the fold enrichment of FRAP phage compared to the starting mixture (carb/chlor cfu ratio) in test [2], in test [3] and in test [4] were 2.4 fold, 1.5 fold and 271 fold, respectively.
